Molecular target: sumf1_human SUMF1 (UniProt Q8NBK3)
Sequence (Q8NBK3 whole entry): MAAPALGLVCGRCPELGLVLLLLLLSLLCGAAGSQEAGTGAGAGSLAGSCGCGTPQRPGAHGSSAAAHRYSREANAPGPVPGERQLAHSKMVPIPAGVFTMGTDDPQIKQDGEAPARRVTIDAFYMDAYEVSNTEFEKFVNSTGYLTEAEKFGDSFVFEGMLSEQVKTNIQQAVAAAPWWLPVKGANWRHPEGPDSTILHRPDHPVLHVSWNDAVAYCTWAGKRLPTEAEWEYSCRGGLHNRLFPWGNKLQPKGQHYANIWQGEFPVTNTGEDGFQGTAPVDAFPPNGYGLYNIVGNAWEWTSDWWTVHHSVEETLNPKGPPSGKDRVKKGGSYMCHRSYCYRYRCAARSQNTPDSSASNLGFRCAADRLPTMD

effect of a mutation on the interaction: disrupting interaction strength
Substance: Inactive C-alpha-formylglycine-generating enzyme 2 (Homo sapiens), Q8NBJ7 C156A;C290A
